In patent US20040072240A1:
Like-named read-outs stand apart in the source and are kept apart here.

Assays:
[1] = biological target: HLA A2.1 molecule (human); assay: T2 cells, flow cytometry; P1Y variant against its natural peptide
[2] = biological target: HLA A2.1 molecule (human); assay: T2 cells, flow cytometry (BB7.2); reference HIVpol 589
[3] = biological target: HLA A2.1 molecule (human); assay: T2 cells, flow cytometry (BB7.2); complex dissociation
[4] = biological target: HLA A2.1 molecule (human); assay: T2 cells, flow cytometry (BB7.2); reference I9V
[5] = remark: other sources report otherwise

Binder | DC50 Y1-DC50 WT [1] | RA WT/RA Y1 [1] | RA (relative affinity) [2] | DC50 [3] | other results
YLVSEFSRM (modifications not checked) [P1Y variant of HER-2/neu 971] | 2 h | 11.6 | – | – | –
YLCRWGLLL (modifications not checked) [HER-2/neu 5Y1] | 0 h | 1.1 | – | – | –
YLMPYGCLL (modifications not checked) [P1Y variant of HER-2/neu 799] | > 2 h | 3.9 | – | – | –
PLTSIISAV (modifications not checked) [HER-2/neu 650] | – | – | 1.4 | < 2 h | –
VMAGVGSPYV (modifications not checked) [HER-2/neu 773] | – | – | 1.7 | 6 h | –
HLYQGCQVV (modifications not checked) [HER-2/neu 48] | – | – | 1.7 | > 8 h | –
DLQVNSLQTV (modifications not checked) [mhp 988] | – | – | 28.6 | < 2 h | –
RLFFYRKSV (modifications not checked) [mhp 572] | – | – | 25.3 | < 2 h | –
TLEEITGYL (modifications not checked) [HER-2/neu 402] | – | – | 19 | < 2 h | –
VLYRYGSFSV (modifications not checked) [gp100 476] | – | – | 10 | 6 h | –
YLQPEQLQV (modifications not checked) [HER-2/neu 391Y1] | > 6 h | 55.5 | 1.3 | 8 h | –
QLLRSFFHFL (modifications not checked) [mp 545] | – | – | 1.8 | > 6 h | –
SLFDFFHFL (modifications not checked) [mp 797] | – | – | 1.5 | > 6 h | –
YLTGDENFTI (modifications not checked) [P1Y variant of Tyrosinase 224] | > 2 h | > 5.1 | – | – | –
YLVPQQGFFC (modifications not checked) [HER-2/neu 1023] | – | – | 19.6 | 4 h | –
ILLVVVLGV (modifications not checked) [HER-2/neu 661] | – | – | > 60 | – | –
YLLAVLYCL (modifications not checked) [P1Y variant of Tyrosinase 1] | > 2 h | > 3.7 | – | – | –
PLQPEQLQV (modifications not checked) [HER-2/neu 391] | – | – | > 70 | 2 h | –
YLPWHRLFLL (modifications not checked) [P1Y variant of Tyrosinase 207] | > 4 h | > 6.4 | – | – | –
YLDGTATLRL (modifications not checked) [gp100 457Y1] | > 2 h | 2.3 | – | – | –
YMAGVGSPYV (modifications not checked) [P1Y variant of HER-2/neu 773] | 2 h | 2 | – | – | –
MLGTHTMEV (modifications not checked) [gp100 178] | – | – | 0.3 | – | –
KLTGDENFTI (modifications not checked) [Tyrosinase 224] | – | – | > 50 | < 2 h | –
KLTPLCVSL (modifications not checked) [K9L] | – | – | – | > 6 h | RA (relative affinity) [4]: 1.35
ALCRWGLLL (modifications not checked) [HER-2/neu 5] | – | – | – | > 8 h | –
VLVKSPNHV (modifications not checked) [HER-2/neu 851] | – | – | 24 | 4 h | –
YLYQGCQVV (modifications not checked) [P1Y variant of HER-2/neu 48] | 0 h | 3 | – | – | –
YLVKSPNHV (modifications not checked) [P1Y variant of HER-2/neu 851] | 2 h | 3 | – | – | –

Binder | DC50 Y1-DC50 WT [1] | RA WT/RA Y1 [1] | RA (relative affinity) [2] | DC50 [3] | other results
PLEEELPRL (modifications not checked) [HBVpol 594] | – | – | – | – | RA (relative affinity) [2, 5]: 4.2; DC50 [3, 5]: < 2 h
YLQVNSLQTV (modifications not checked) [mhp 988Y1] | – | – | 2.1 | > 6 h | –
LLDGTATLRL (modifications not checked) [gp100 457] | – | – | 1.6 | – | –
FLSTLVHGV (modifications not checked) [mp 876] | – | – | 1.2 | > 6 h | –
ALIHHNTHL (modifications not checked) [HER-2/neu 466] | – | – | – | 2 h | –
YLGTHTMEV (modifications not checked) [P1Y variant of gp100 178] | 2 h | 0.8 | – | – | –
QLMPYGCLL (modifications not checked) [HER-2/neu 799] | – | – | 1 | – | –
YLEEITGYL (modifications not checked) [HER-2/neu 402Y1] | > 2 h | 5.2 | 3.7 | 4 h | –
YLFFYRKSV (modifications not checked) [mhp 572Y1] | – | – | 2.2 | 5 h | –
YLADTNSLAV (modifications not checked) [gp100 570Y1] | > 2 h | 3.4 | – | – | –
FLPWHRLFLL (modifications not checked) [Tyrosinase 207] | – | – | > 50 | 2 h | –
ELVSEFSRM (modifications not checked) [HER-2/neu 971] | – | – | > 70 | 2 h | –
YIFGSLAFL (modifications not checked) [HER-2/neu 369Y1] | > 2 h | 3.9 | – | – | –
YLTVILGVL (modifications not checked) [P1Y variant of Mart-1 32] | 2 h | 16.2 | – | – | –
YMLGTHTMEV (modifications not checked) [gp100 177Y1] | 2 h | 0.6 | – | – | –
AMLGTHTMEV (modifications not checked) [gp100 177] | – | – | 0.5 | > 6 h | –
YLLVVVLGV (modifications not checked) [HER-2/neu 661Y1] | 2 h | > 1.5 | – | – | –
ILATFLAWL (modifications not checked) [mp 530] | – | – | 0.8 | > 6 h | –
FLFWLMDTYV (modifications not checked) [mp 534] | – | – | 0.2 | > 6 h | –
LLDTGADDTV (modifications not checked) [pol79] | – | – | – | < 2 h | RA (relative affinity) [4]: 10
ILTVILGVL (modifications not checked) [mart-1 32] | – | – | 21.1 | 4 h | –
SLADTNSLAV (modifications not checked) [gp100 570] | – | – | 1 | – | –
LLGCAANWIL (modifications not checked) [HBVpol 765] | – | – | 2 | 4 h | –
MLLAVLYCL (modifications not checked) [Tyrosinase 1] | – | – | > 60 | – | –
ILAKFLHWL (modifications not checked) [mhp 540] | – | – | 0.3 | > 6 h | –
YLIHHNTHL (modifications not checked) [HER-2/neu 466Y1] | > 4 h | 3.3 | 1.4 | 6 h | –
YLYRYGSFSV (modifications not checked) [gp100 476Y1] | 2 h | 4.2 | – | – | –
